{"source": "patent US20220380791A1", "about": "(ELEVA, published 2022)", "binders": {"B1": {"name": "Agalsidase alfa (Shire, Replagal) (enzyme, UniProt P06280 32-429, looked up)", "chain": "LDNGLARTPTMGWLHWERFMCNLDCQEEPDSCISEKLFMEMAELMVSEGWKDAGYEYLCIDDCWMAPQRDSEGRLQADPQRFPHGIRQLANYVHSKGLKLGIYADVGNKTCAGFPGSFGYYDIDAQTFADWGVDLLKFDGCYCDSLENLADGYKHMSLALNRTGRSIVYSCEWPLYMWPFQKPNYTEIRQYCNHWRNFADIDDSWKSIKSILDWTSFNQERIVDVAGPGGWNDPDMLVIGNFGLSWNQQVTQMALWAIMAAPLFMSNDLRHISPQAKALLQDKDVIAINQDPLGKQGYQLRQGDNFEVWERPLSGLAWAVAMINRQEIGGPRSYTIAVASLGKGVACNPACFITQLLPVKRKLGFYEWTSRLRSHINPTGTVLLQLENTMQMSLKDLL", "modifications": "heterogeneous N-glycans, about 24% phosphorylated (M6P) glycans"}}, "molecular_target": "M6P receptor (M6PR) (human)", "assay": "cell-based or functional assay", "data": [{"binder": "B1", "values": [{"measurement": "intracellular α-gal A activity of Fabry patient fibroblasts after 18 hours incubation with 10 µg/ml enzyme (fold of untreated cells)", "value": 116, "unit": "fold"}]}]}
